Experimental data: patent publication US6248520, “Nucleic acid molecules encoding nuclear hormone receptor coactivators and uses thereof” (The Rockefeller University, dated 2001)

Target: T1, human thyroid hormone receptor α (TRα-1), intact (human, UniProt P10827-2)
T1 sequence: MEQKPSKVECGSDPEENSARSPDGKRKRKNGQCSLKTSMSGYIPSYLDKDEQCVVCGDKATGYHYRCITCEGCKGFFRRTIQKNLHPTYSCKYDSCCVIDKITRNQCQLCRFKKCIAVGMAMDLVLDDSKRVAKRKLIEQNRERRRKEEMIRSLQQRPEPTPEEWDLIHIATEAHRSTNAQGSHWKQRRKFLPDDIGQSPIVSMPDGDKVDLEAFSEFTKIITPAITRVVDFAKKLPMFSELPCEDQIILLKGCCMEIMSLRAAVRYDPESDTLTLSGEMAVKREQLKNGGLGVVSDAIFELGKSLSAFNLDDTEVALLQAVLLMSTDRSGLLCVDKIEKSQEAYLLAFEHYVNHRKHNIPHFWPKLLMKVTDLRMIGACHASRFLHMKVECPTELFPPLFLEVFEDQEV
Test: Far Western: 35S-labelled TRα on blotted TR-TRAP complex (TRAP100 is one of the other TRAPs)
Protocol: For coimmunoprecipitation (7), 2 μl of anti-FLAG M2 affinity gel (Kodak) and 3 μl of ^35S-labeled input proteins were used. For Far Western analyses, 500 ng of purified TR-TRAP complex was resolved by SDS-PAGE and transferred onto a nitrocellulose membrane. The blots were probed with in vitro translated, ^35S-labeled human TRα-1 or TRα-1 C-terminus (residues 122–410) in the presence and absence of 10^-7 M T_3.
Figure 7A: FIG. 7. Ligand-dependent interaction between TRα and TRAP220. (A) Far Western. 500 ng of purified TR-TRAP complex was separated by SDS-PAGE (8% gel), blotted and probed with ^35S-labeled full length (TR) and C-terminal (TRα-C) hTRα in the presence and absence of 10^-7 M […] (T_3). The arrow head indicates the position of the TRAP220 band. (B) Co-immunoprecipitation of TR-TRAP220 from in vitro translated products. The indicated combinations of ^35S-labeled TRAP220, TRAP100 and FLAG-TRα were incubated in the presence and absence of […] (T_3), and subjected to immunoprecipitation with anti-FLAG antibodies (M2 agarose) that recognizes only FLAG-tagged TRα. Figure 7B: Figure 8A: FIG. 8. Nuclear hormone receptor interactions with […] and TRAP100. (A) Ligand-dependent interactions of GST-TRAP220/1 and 2 with ^35S-labeled TRα. […]

binding result: no binding
B1: Thyroid Receptor-associated protein (TRAP) 100 (other)
chain: MKVVNLKQAILQAWKERWSDYQWAINMKKFFPKGATWDILNLADALLEQAMIGPSPNPLILSYLKYAISSQMVSYSSVLTAISKFDDFSRDLCVQALLDIMDMFCDRLSCHGKAEECIGLCRALLSALHWLLRCTAASAERLREGLEAGTPAAGEKQLAMCLQRLEKTLSSTKNRALLHIAKLEEASSWTAIEHSLLKLGEILANLSNPQLRSQAEQCGTLIRSIPTMLSVHAEQMHKTGFPTVHAVILLEGTMNLTGETQSLVEQLTMVKRMQHIPTPLFVLEIWKACFVGLIESPEGTEELKWTAFTFLKIPQVLVKLKKYSHGDKDFTEDVNCAFEFLLKLTPLLDKADQRCNCDCTNFLLQECGKQGLLSEASVNNLMAKRKADREHAPQQKSGENANIQPNIQLILRAEPTVTNILKTMDADHSKSPEGLLGVLGHMLSGKSLDLLLAAAAATGKLKSFARKFINLNEFTTYGSEESTKPASVRALLFDISFLMLCHVAQTYGSEVILSESRTGAEVPFFETWMQTCMPEEGKILNPDHPCFRPDSTKVESLVALLNNSSEMKLVQMKWHEACLSISAAILEILNAWENGVLAFESIQKITDNIKGKVCSLAVCAVAWLVAHVRMLGLDEREKSLQMIRQLAGPLFSENTLQFYNERVVIMNSILERMCADVLQQTATQIKFPSTGVDTMPYWNLLPPKRPIKEVLTDIFAKVLEKGWVDSRSIHIFDTLLHMGGVYWFCNNLIKELLKETRKEHTLRAVELLYSIFCLDMQQVTLVLLGHILPGLLTDSSKWHSLMDPPGTALAKLAVWCALSSYSSHKGQASTRQKKRHREDIEDYISLFPLDDVQPSKLMRLLSSNEDDANILSSPTDRSMSSSLSASQLHTVNMRDPLNRVLANLFLLISSILGSRTAGPHTQFVQWFMEECVDCLEQGGRGSVLQFMPFTTVSELVKVSAMSSPKVVLAITDLSLPLGRQVAAKAIAAL
